Assay results from patent US7026443.

molecular target: HLA-A*0301 (human); test: not given; conditions: not given

Row | Binder | relative binding ratio (IC50 of standard peptide / IC50 of test peptide) (ratio to standard peptide)
1 | LIRCLRCQK (modifications not checked) [HPV45 E6 peptide … (position 102, 9 amino acids)] | 0.019
2 | LLIRCLRCQK (modifications not checked) [HPV45 E6 peptide … (position 101, 10 amino acids)] | 0.047

molecular target: HLA-A*1101 (human); test: not given; conditions: not given

Row | Binder | relative binding ratio (IC50 of standard peptide / IC50 of test peptide) (ratio to standard peptide)
3 | LIRCLRCQK (modifications not checked) [HPV45 E6 peptide … (position 102, 9 amino acids)] | 0.0012
4 | LLIRCLRCQK (modifications not checked) [HPV45 E6 peptide … (position 101, 10 amino acids)] | 0.12

molecular target: HLA-A*2402 (human); test: not given; conditions: not given

Row | Binder | binding affinity ratio (IC50 of standard peptide / IC50 of test peptide) | relative binding ratio (IC50 of standard peptide / IC50 of test peptide) | relative binding ratio (IC50 of standard peptide / IC50 of test peptide) (ratio to standard peptide)
5 | DFAFRDLCI (modifications not checked) [HPV16 E6 51 …] | 0.0003 | – | –
6 | VYCKQQLL (modifications not checked) [HPV16 E6 38 VYCKQQLL] | – | 0.0069 | –
7 | CYSLYGTTL (modifications not checked) [HPV16 E6 87 …] | 0.046 | – | –
8 | FYSRIRELRHY (modifications not checked) [HPV18 E6 71-81 peptide …] | – | – | 0.0052
9 | FYSRIREL (modifications not checked) [HPV45 E6 71 peptide FYSRIREL (SEQ ID NO: 15714)] | – | 0.026 | –
10 | PYKLPDLCTEL (modifications not checked) [HPV45 E6 11 peptide … (SEQ ID NO: 15737)] | – | 0.0064 | –
11 | LYNLLIRCL (modifications not checked) [HPV18 E6 98-106 peptide …] | – | – | 0.0001
12 | LYNLLIRCL (modifications not checked) [HPV45 E6 98 peptide … (SEQ ID NO: 15730)] | – | 0.0001 | –
13 | PYAVCDKCL (modifications not checked) [HPV16 E6 66 …] | – | 0.0078 | –
14 | FYSRIREL (modifications not checked) [HPV18 E6 71-78 peptide FYSRIREL] | – | – | 0.026
15 | VYRDGNPY (modifications not checked) [HPV16 E6 60 VYRDGNPY] | – | 0.0001 | –

same assay, conditions: remark: other sources report otherwise

Row | Binder | relative binding ratio (IC50 of standard peptide / IC50 of test peptide) | relative binding ratio (IC50 of standard peptide / IC50 of test peptide) (ratio to standard peptide)
16 | KLPDLCTEL (modifications not checked) [HPV45 E6 13 peptide … (SEQ ID NO: 15726)] | 0.0013 | –
17 | KLPDLCTEL (modifications not checked) [HPV18 E6 13-21 peptide …] | – | 0.0013
18 | RFHNIRGRW (modifications not checked) [HPV16 E6 131 …] | 0.022 | –

molecular target: HLA-A*0301 (human); test: not given; conditions: not given; remark: another data set of the same source

Row | Binder | binding affinity ratio (IC50 of standard peptide / IC50 of test peptide)
19 | LIRCLRCQK (modifications not checked) [HPV45 E6 peptide … (position 102, 9 amino acids)] | 0.019
20 | LLIRCLRCQK (modifications not checked) [HPV45 E6 peptide … (position 101, 10 amino acids)] | 0.047

molecular target: HLA-A*1101 (human); test: not given; conditions: not given; remark: another data set of the same source

Row | Binder | relative binding ratio (IC50 of standard peptide / IC50 of test peptide) (ratio to standard peptide)
21 | LIRCLRCQK (modifications not checked) [HPV45 E6 peptide … (position 102, 9 amino acids)] | 0.0012
22 | LLIRCLRCQK (modifications not checked) [HPV45 E6 peptide … (position 101, 10 amino acids)] | 0.12

molecular target: HLA-A*2402 (human); test: not given; conditions: not given; remark: another data set of the same source

Row | Binder | relative binding ratio (IC50 of standard peptide / IC50 of test peptide) | relative binding ratio (IC50 of standard peptide / IC50 of test peptide) (ratio to standard peptide) | binding affinity ratio (IC50 of standard peptide / IC50 of test peptide)
23 | PYKLPDLCTEL (modifications not checked) [… (HPV18 E6, position 11, 11 amino acids)] | 0.0064 | – | –
24 | VYCKTVLEL (modifications not checked) [… (HPV18 E6, position 33, 9 amino acids)] | 0.022 | – | –
25 | DFAFRDLCI (modifications not checked) [HPV16 E6 51 …] | – | 0.0003 | –
26 | VYCKQQLL (modifications not checked) [HPV16 E6 38 VYCKQQLL] | – | 0.0069 | –
27 | LYNLLIRCL (modifications not checked) [… (HPV18 E6, position 98, 9 amino acids)] | 0.0001 | – | –
28 | CYSLYGTTL (modifications not checked) [HPV16 E6 87 …] | – | 0.046 | –
29 | LYNLLIRCL (modifications not checked) [HPV45 E6 position 98 peptide … (SEQ ID NO: 46118)] | – | – | 0.0001
30 | PYAVCDKCL (modifications not checked) [HPV16 E6 66 …] | – | 0.0078 | –
31 | FYSRIREL (modifications not checked) [FYSRIREL (HPV18 E6, position 71, 8 amino acids)] | 0.026 | – | –
32 | FYSRIREL (modifications not checked) [HPV45 E6 position 71 peptide FYSRIREL (SEQ ID NO: 46116)] | – | – | 0.026
33 | VFEFAFKDLF (modifications not checked) [… (HPV18 E6, position 44, 10 amino acids)] | 0.036 | – | –
34 | PYKLPDLCTEL (modifications not checked) [HPV45 E6 position 11 peptide … (SEQ ID NO: 46119)] | – | – | 0.0064

same assay, conditions: remark: other sources report otherwise

Row | Binder | relative binding ratio (IC50 of standard peptide / IC50 of test peptide) (ratio to standard peptide)
35 | RFHNIRGRW (modifications not checked) [HPV16 E6 131 …] | 0.022

molecular target: HLA-A*0201 (human); test: competition with 125I-labeled standard peptide for purified HLA-A*0201, gel filtration; conditions: not given

Row | Binder | relative binding ratio (IC50 of standard peptide / IC50 of test peptide) (ratio to standard peptide)
36 | FLNTLSFV (modifications not checked) [HPV18 E7 peptide FLNTLSFV (position 90, 8 amino acids)] | 0.0079
37 | KLVVESSADDL (modifications not checked) [HPV18 E7 peptide … (position 73, 11 amino acids)] | 0.0001
38 | LVVESSADDL (modifications not checked) [HPV18 E7 peptide … (position 74, 10 amino acids)] | 0.0001
39 | MLCMCCKCEA (modifications not checked) [HPV18 E7 peptide … (position 61, 10 amino acids)] | 0.0016
40 | HLEPQNEIPV (modifications not checked) [HPV18 E7 peptide … (position 14, 10 amino acids)] | 0.0001
41 | HLEPQNEI (modifications not checked) [HPV18 E7 peptide HLEPQNEI (position 14, 8 amino acids)] | 0.0001
42 | VLHLEPQNEI (modifications not checked) [HPV18 E7 peptide … (position 12, 10 amino acids)] | 0.0001
43 | CLDCKWGVLI (modifications not checked) [HPV18 E1 273 peptide …] | 0.0002
44 | RAFQQLFLNT (modifications not checked) [HPV18 E7 peptide … (position 84, 10 amino acids)] | 0.0003
45 | KLVVESSA (modifications not checked) [HPV18 E7 peptide KLVVESSA (position 73, 8 amino acids)] | 0.0001
46 | GVNHQHLPA (modifications not checked) [HPV18 E7 peptide … (position 43, 9 amino acids)] | 0.0001
47 | VVESSADDL (modifications not checked) [HPV18 E7 peptide … (position 75, 9 amino acids)] | 0.0003
48 | AVFKDTYGL (modifications not checked) [HPV18 E1 216 peptide …] | 0.014

molecular target: HLA-A*0201 (human); test: inhibition of binding of 125I-labelled standard peptide to purified HLA, gel filtration; conditions: not given

Row | Binder | relative binding ratio (IC50 of standard peptide / IC50 of test peptide)
49 | LLMGTLGI (modifications not checked) [HPV16 E7 peptide LLMGTLGI (position 82, 8 amino acids)] | 0.0008
50 | MLDLQPETTDL (modifications not checked) [HPV16 E7 peptide … (position 12, 11 amino acids)] | 0.0005
51 | DIRTLEDL (modifications not checked) [HPV16 E7 peptide DIRTLEDL (position 75, 8 amino acids)] | 0.0001
52 | DLLMGTLGI (modifications not checked) [HPV16 E7 peptide … (position 81, 9 amino acids)] | 0.0002
53 | HVDIRTLEDL (modifications not checked) [HPV16 E7 peptide … (position 73, 10 amino acids)] | 0.0001
54 | TIHDIILECV (modifications not checked) [HPV16 E6 peptide … (position 29, 10 amino acids)] | 0.021
55 | LMGTLGIV (modifications not checked) [HPV16 E7 peptide LMGTLGIV (position 83, 8 amino acids)] | 0.0001
56 | DLQPETTDL (modifications not checked) [HPV16 E7 peptide … (position 14, 9 amino acids)] | 0.0003

same assay, conditions: remark: other sources report otherwise

Row | Binder | relative binding ratio (IC50 of standard peptide / IC50 of test peptide)
57 | MLDLQPET (modifications not checked) [HPV16 E7 peptide MLDLQPET (position 12, 8 amino acids)] | 0.0001
58 | RTLEDLLMGT (modifications not checked) [HPV16 E7 peptide … (position 77, 10 amino acids)] | 0.0006
59 | MLDLQPETT (modifications not checked) [HPV16 E7 peptide … (position 12, 9 amino acids)] | 0.0028
60 | RLCVQSTHV (modifications not checked) [HPV16 E7 peptide … (position 66, 9 amino acids)] | 0.0003
61 | DLLMGTLGIV (modifications not checked) [HPV16 E7 peptide … (position 81, 10 amino acids)] | 0.0005

molecular target: HLA-A*0301 (human); test: competitive inhibition of 125I-labelled standard peptide binding to purified HLA-A*0301, gel filtration; conditions: not given

Row | Binder | relative binding ratio (IC50 of standard peptide / IC50 of test peptide) (ratio to standard peptide)
62 | CCKCDSTLR (modifications not checked) [HPV16 E7 58 …] | 0.0003
63 | YCKQQLLRR (modifications not checked) [HPV16 E6 39 …] | 0.0003
64 | CVQSTHVDIR (modifications not checked) [HPV16 E7 68 …] | 0.0049

same assay, conditions: remark: other sources report otherwise

Row | Binder | relative binding ratio (IC50 of standard peptide / IC50 of test peptide) (ratio to standard peptide)
65 | IVCPICSQK (modifications not checked) [HPV16 E7 89 …] | 0.0077
66 | GIVCPICSQK (modifications not checked) [HPV16 E7 88 …] | 0.0003
67 | HGDTPTLHEY (modifications not checked) [HPV16 E7 2 …] | 0.0001
